Results reported in patent US20150132305A1 (ADHERON THERAPEUTICS, published 2015).

Columns and labels:
[1] = target: T1, recombinant Cad-11 EC1 human IgG1 fusion protein (R&D Systems Cat. No. 1790-CA-050) (human, UniProt P55287 54-617, limits assumed); test: competition ELISA against biotinylated SYN0012/H1M1 (competitor) on coated fusion protein; text says values are normalised to the IC50 of SYN0012
T1 construct: bought; also called recombinant human Cad-11 EC1; recombinant human Cad-11 fusion protein; not shown: human IgG1 part
T1 sequence: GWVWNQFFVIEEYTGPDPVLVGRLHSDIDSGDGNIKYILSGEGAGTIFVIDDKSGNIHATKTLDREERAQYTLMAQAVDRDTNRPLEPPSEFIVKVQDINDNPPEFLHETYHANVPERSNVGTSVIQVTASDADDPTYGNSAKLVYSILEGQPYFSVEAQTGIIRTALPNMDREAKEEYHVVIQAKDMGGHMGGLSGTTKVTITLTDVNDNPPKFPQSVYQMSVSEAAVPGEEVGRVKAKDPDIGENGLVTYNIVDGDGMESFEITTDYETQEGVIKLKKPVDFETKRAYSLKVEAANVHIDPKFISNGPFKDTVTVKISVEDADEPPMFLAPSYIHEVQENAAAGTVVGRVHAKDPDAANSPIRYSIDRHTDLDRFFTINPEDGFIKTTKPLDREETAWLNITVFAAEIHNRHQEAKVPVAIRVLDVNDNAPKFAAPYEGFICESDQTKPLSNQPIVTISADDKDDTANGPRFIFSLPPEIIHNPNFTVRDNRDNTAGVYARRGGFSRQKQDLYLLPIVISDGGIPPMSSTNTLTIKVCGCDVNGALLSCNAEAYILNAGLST
Method: (§1) The binding of the purified humanized composite variant antibodies (SDP011 to SDP151) to a recombinant Cad-11 EC1 human IgG1 fusion protein was assessed in a competition binding ELISA. A dilution series from 5 μg/ml to 0.0022 μg/ml of the humanized or control (SYN0012/H1M1) antibodies was premixed with a constant concentration of biotinylated murine anti-Cad-11 antibody, SYN0012/H1M1 (0.1 μg/ml, final concentration), before incubating for 1 hour at room temperature on a NUNC-IIMMUNO™ MAXISORP™ 96 well flat bottom microtitre plate (Fisher Cat. No. DIS-971-030J) pre-coated with 0.25 μg/ml recombinant human Cad-11 EC1 (R&D Systems Cat. No. 1790-CA-050) diluted in PBS. The binding of the biotinylated mAb was detected with streptavidin-HRP (Sigma Cat. No. 55512) and tetramethylbenzidine (TMB) substrate (Invitrogen Cat. No. 00-2023).
(§2) All of the humanized anti-Cad-11 antibodies efficiently competed with SYN0012 for binding to the Cad-11 fusion protein (FIGS. 38A to C). […] The curves were used to calculate IC50 values for each antibody and these were normalized to the IC50 of SYN0012, which was included on each ELISA plate so that comparisons between plates could be made (Table 3). The expression levels of each cell line and the calculated isoelectric point (pI) of each antibody are also shown (Table 3).
The relative IC50 was calculated by dividing the value for the test antibody by that of SYN0012. Antibody expression levels given are for static cultures in T flasks. PI are calculated.

[2] = target: T1, recombinant Cad-11 EC1 human IgG1 …; test: competition ELISA: antibody dilution series premixed with 0.1 µg/ml biotinylated SYN0012/H1M1, plate coated with recombinant human Cad-11 EC1 fusion protein, streptavidin-HRP, OD450
Method: as §1, §2

[3] = target: T1, recombinant Cad-11 EC1 human IgG1 …; test: competition ELISA on coated recombinant human Cad-11 EC1 fusion protein against biotinylated SYN0012 (0.1 µg/ml)
Method: as §1, §2

Row | Binder | IC50 [1] [mg/L] | IC50 (read off the curve) [2] [mg/L] | IC50 (read off the curve) [3] [mg/L]
1 | SDP081 humanized anti-Cad-11 EC1 antibody (Vκ2/VH3) (antibody, IgG4, V domains shown, humanized IgG4 (S241P), kappa) VH: EVQLVQSGAEVKKPGASVKISCKASGYSFTGYFMNWVRQAPGQGLEWIGRINPYTGDTFYNQKFKGRATLTVDKSTSTAYMELSSLRSEDTAVYYCGRLGSRYWYFDVWGQGTTVTVSS VL: DVLMTQTPLSSPVTLGQPASISCRSSQSIIHSNGNTYLEWYLQKPGQSPQLLIYKVSNRFSGVPDRFSGSGSGTDFTLKISRVEAEDVGVYYCFQGSHVPWTFGQGTKLEIK | 0.42 |  | 
2 | SDP091 humanized anti-Cad-11 EC1 antibody (Vκ2/VH4) (antibody, IgG4, V domains shown, humanized IgG4 (S241P), kappa) VH: EVQLVQSGAEVKKPGASVKVSCKASGYSFTGYFMNWVRQAPGQGLEWIGRINPYTGDTFYNQKFKGRATITVDKSTSTAYMELSSLRSEDTAVYYCGRLGSRYWYFDVWGQGTTVTVSS VL: DVLMTQTPLSSPVTLGQPASISCRSSQSIIHSNGNTYLEWYLQKPGQSPQLLIYKVSNRFSGVPDRFSGSGSGTDFTLKISRVEAEDVGVYYCFQGSHVPWTFGQGTKLEIK | 0.57 |  | 
3 | SDP121 humanized anti-Cad-11 EC1 antibody (Vκ3/VH2) (antibody, IgG4, V domains shown, humanized IgG4 (S241P), kappa) VH: EVQLVQSGAEVKKPGASVKISCKASGYSFTGYFMNWVKQAPGQGLEWIGRINPYTGDTFYNQKFKGRATLTVDKSTSTAYMELSSLRSEDTAVYYCGRLGSRYWYFDVWGQGTTVTVSS VL: DVVMTQTPLSSPVTLGQPASISCRSSQSIIHSNGNTYLEWYLQKPGQSPQLLIYKVSNRFSGVPDRFSGSGSGTDFTLKISRVEAEDVGVYYCFQGSHVPWTFGQGTKLEIK | 0.52 | ~0.2 | 
4 | SDP021 humanized anti-Cad-11 EC1 antibody (Vκ1/VH2) (antibody, IgG4, V domains shown, humanized IgG4 (S241P), kappa) VH: EVQLVQSGAEVKKPGASVKISCKASGYSFTGYFMNWVKQAPGQGLEWIGRINPYTGDTFYNQKFKGRATLTVDKSTSTAYMELSSLRSEDTAVYYCGRLGSRYWYFDVWGQGTTVTVSS VL: DVLMTQTPLSSPVTLGQPASISCRSSQSIIHSNGNTYLEWYLQKPGQSPQLLIYKVSNRFSGVPDRFTGSGSGTDFTLKISRVEAEDVGVYYCFQGSHVPWTFGQGTKLEIK | 0.67 |  | ~0.1
5 | SDP031 humanized anti-Cad-11 EC1 antibody (Vκ1/VH3) (antibody, IgG4, V domains shown, humanized IgG4 (S241P), kappa) VH: EVQLVQSGAEVKKPGASVKISCKASGYSFTGYFMNWVRQAPGQGLEWIGRINPYTGDTFYNQKFKGRATLTVDKSTSTAYMELSSLRSEDTAVYYCGRLGSRYWYFDVWGQGTTVTVSS VL: DVLMTQTPLSSPVTLGQPASISCRSSQSIIHSNGNTYLEWYLQKPGQSPQLLIYKVSNRFSGVPDRFTGSGSGTDFTLKISRVEAEDVGVYYCFQGSHVPWTFGQGTKLEIK | 0.84 |  | ~0.2
6 | SDP151 humanized anti-Cad-11 EC1 antibody (Vκ3/VH5) (antibody, IgG4, V domains shown, humanized IgG4 (S241P), kappa) VH: EVQLVQSGAEVKKPGASVKVSCKASGYSFTGYFMNWVRQAPGQGLEWIGRINPYTGDTFYNQKFKGRVTITVDKSTSTAYMELSSLRSEDTAVYYCGRLGSRYWYFDVWGQGTTVTVSS VL: DVVMTQTPLSSPVTLGQPASISCRSSQSIIHSNGNTYLEWYLQKPGQSPQLLIYKVSNRFSGVPDRFSGSGSGTDFTLKISRVEAEDVGVYYCFQGSHVPWTFGQGTKLEIK | 0.72 | ~0.2 | 
7 | SDP131 humanized anti-Cad-11 EC1 antibody (Vκ3/VH3) (antibody, IgG4, V domains shown, humanized IgG4 (S241P), kappa) VH: EVQLVQSGAEVKKPGASVKISCKASGYSFTGYFMNWVRQAPGQGLEWIGRINPYTGDTFYNQKFKGRATLTVDKSTSTAYMELSSLRSEDTAVYYCGRLGSRYWYFDVWGQGTTVTVSS VL: DVVMTQTPLSSPVTLGQPASISCRSSQSIIHSNGNTYLEWYLQKPGQSPQLLIYKVSNRFSGVPDRFSGSGSGTDFTLKISRVEAEDVGVYYCFQGSHVPWTFGQGTKLEIK | 0.55 | ~0.2 | 
8 | SDP101 humanized anti-Cad-11 EC1 antibody (Vκ2/VH5) (antibody, IgG4, V domains shown, humanized IgG4 (S241P), kappa) VH: EVQLVQSGAEVKKPGASVKVSCKASGYSFTGYFMNWVRQAPGQGLEWIGRINPYTGDTFYNQKFKGRVTITVDKSTSTAYMELSSLRSEDTAVYYCGRLGSRYWYFDVWGQGTTVTVSS VL: DVLMTQTPLSSPVTLGQPASISCRSSQSIIHSNGNTYLEWYLQKPGQSPQLLIYKVSNRFSGVPDRFSGSGSGTDFTLKISRVEAEDVGVYYCFQGSHVPWTFGQGTKLEIK | 0.53 |  | 
9 | SDP041 humanized anti-Cad-11 EC1 antibody (Vκ1/VH4) (antibody, IgG4, V domains shown, humanized IgG4 (S241P), kappa) VH: EVQLVQSGAEVKKPGASVKVSCKASGYSFTGYFMNWVRQAPGQGLEWIGRINPYTGDTFYNQKFKGRATITVDKSTSTAYMELSSLRSEDTAVYYCGRLGSRYWYFDVWGQGTTVTVSS VL: DVLMTQTPLSSPVTLGQPASISCRSSQSIIHSNGNTYLEWYLQKPGQSPQLLIYKVSNRFSGVPDRFTGSGSGTDFTLKISRVEAEDVGVYYCFQGSHVPWTFGQGTKLEIK | 0.65 |  | ~0.1
10 | SDP011 humanized anti-Cad-11 EC1 antibody (Vκ1/VH1) (antibody, IgG4, V domains shown, humanized IgG4 (S241P), kappa) VH: EVQLVQSGPELKKPGASVKISCKASGYSFTGYFMNWVKQAHGQGLEWIGRINPYTGDTFYNQKFKGRATLTVDKSSSTAYMELVSLSSEDSAVYYCGRLGSRYWYFDVWGQGTTVTVSS VL: DVLMTQTPLSSPVTLGQPASISCRSSQSIIHSNGNTYLEWYLQKPGQSPQLLIYKVSNRFSGVPDRFTGSGSGTDFTLKISRVEAEDVGVYYCFQGSHVPWTFGQGTKLEIK | 0.91 |  | ~0.2
11 | SDP141 humanized anti-Cad-11 EC1 antibody (Vκ3/VH4) (antibody, IgG4, V domains shown, humanized IgG4 (S241P), kappa) VH: EVQLVQSGAEVKKPGASVKVSCKASGYSFTGYFMNWVRQAPGQGLEWIGRINPYTGDTFYNQKFKGRATITVDKSTSTAYMELSSLRSEDTAVYYCGRLGSRYWYFDVWGQGTTVTVSS VL: DVVMTQTPLSSPVTLGQPASISCRSSQSIIHSNGNTYLEWYLQKPGQSPQLLIYKVSNRFSGVPDRFSGSGSGTDFTLKISRVEAEDVGVYYCFQGSHVPWTFGQGTKLEIK | 0.61 | ~0.2 | 
12 | SDP111 humanized anti-Cad-11 EC1 antibody (Vκ3/VH1) (antibody, IgG4, V domains shown, humanized IgG4 (S241P), kappa) VH: EVQLVQSGPELKKPGASVKISCKASGYSFTGYFMNWVKQAHGQGLEWIGRINPYTGDTFYNQKFKGRATLTVDKSSSTAYMELVSLSSEDSAVYYCGRLGSRYWYFDVWGQGTTVTVSS VL: DVVMTQTPLSSPVTLGQPASISCRSSQSIIHSNGNTYLEWYLQKPGQSPQLLIYKVSNRFSGVPDRFSGSGSGTDFTLKISRVEAEDVGVYYCFQGSHVPWTFGQGTKLEIK | 0.68 | ~0.2 | 
